The data set deals with the molecule itself. As to the kind of experiment: dynamic light scattering + native gel or EMSA; fragment at 0.23 mg/ml in 10 mM phosphate buffer, pH 7.4, 25 °C, immediately after dissolving the lyophilisate; native PAGE 5–12% acrylamide. For orientation: Mobility shift assays separate free from complexed probe on a gel.

B1: hTTR(59–127) (domain or fragment)
chain: not shown
notes: transthyretin, human, C-terminal proteolytic fragment Thr59-Glu127 (7757.4 Da) from cleavage at the Leu58-Thr59 bond; also called Thr59-Glu127 peptide; source: cleavage of plasma-purified hTTR by B. subtilis subtilisin, purified by semi-preparative RP-HPLC, lyophilized
With B1, the binding result is “binds”.

Values taken from PMC7733459, “A serine protease secreted from Bacillus subtilis cleaves human plasma transthyretin to generate an amyloidogenic fragment” (Communications Biology, 2020).
